These results are taken from PMC3753651.

The target in one test is GFP-Polη (UniProt Q9Y253). Nature of the test: co-IP.
The target of test [1] is GFP-mRev1 (not stated (label mRev1)) (UniProt Q920Q2). Nature of the test: co-IP.

As to “PCNA-Ub (C-terminal fusion of ubiquitin to PCNA-K164R) (from UniProt P12004 1-261; P0CG48 1-76)”, the PCNA-Ub:PCNA precipitation ratio with GFP-Polη amounted to 3.5; in test [1] it was 8.5.
